From the supplement of paper PMC10567573 come the findings set out here.
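Note: lentivirally expressed fusion library, cells FACS-sorted into six equal-sized GFP/DsRed ratio bins, PSI computed from sequencing read fractions per bin weighted by bin number.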

The first data set in a line: protein stability index of a GFP-peptide fusion (GPS, HEK-293T) (PSI 1-6); higher = more stable. Conditions: parent: NP_002788.1; c terminus: native.
For the protein DGWIRVSSDNVADLHEKYSGSTPV [PSMB5 addV], the protein stability index was found to be 4.27. Turning to DGWIRVSSDNVADLHEKYSGSTPN [PSMB5 addN], the protein stability index worked out at 4.04.

Still in this data set, the particulars now being: parent: NP_006221.1; c terminus: native.
On to CQPISFSGFGAEDDDLGGLGLGPN [POLD2 addN], for which the protein stability index was 1.99. Take CQPISFSGFGAEDDDLGGLGLGPV [POLD2 addV]: the protein stability index is 3.

Still in this data set, the particulars now being: parent: NP_116010.1; c terminus: native.
As to HSLRAVSTDPPHHDHHDEFCLMPN [BEX2 addN], the protein stability index worked out at 4.18. The same measure, in the same setting: the figure for HSLRAVSTDPPHHDHHDEFCLMPV [BEX2 addV] is 3.68.

The data set is the same for the next values; noted with them: parent: NP_015628.1; c terminus: native.
EQRNSRWNTVLRAVKAKTHHLEPN [TRPA1 addN]: the protein stability index came out at 4.57. As to EQRNSRWNTVLRAVKAKTHHLEPV [TRPA1 addV], the protein stability index was found to be 4.23.

The data set is the same for the next values; noted with them: parent: NP_009172.2; c terminus: native.
Take LPALFTDLYSQEITAEEAREALPV [SNF8 addV]: the protein stability index is 3.9. Still for that read-out and setting: the figure for LPALFTDLYSQEITAEEAREALPN [SNF8 addN] is 4.75.
